Data on two molecules can be found in patent US20220340657A1 (L AND L BIO CO LTD NINGBO CHINA, published 2022).

Assay [1] concerns the target T1, bio-LAG3-mFc (human, UniProt P18627 23-450, biotin-labelled).
T1 construct: also called hLAG-3
T1 sequence (looked up): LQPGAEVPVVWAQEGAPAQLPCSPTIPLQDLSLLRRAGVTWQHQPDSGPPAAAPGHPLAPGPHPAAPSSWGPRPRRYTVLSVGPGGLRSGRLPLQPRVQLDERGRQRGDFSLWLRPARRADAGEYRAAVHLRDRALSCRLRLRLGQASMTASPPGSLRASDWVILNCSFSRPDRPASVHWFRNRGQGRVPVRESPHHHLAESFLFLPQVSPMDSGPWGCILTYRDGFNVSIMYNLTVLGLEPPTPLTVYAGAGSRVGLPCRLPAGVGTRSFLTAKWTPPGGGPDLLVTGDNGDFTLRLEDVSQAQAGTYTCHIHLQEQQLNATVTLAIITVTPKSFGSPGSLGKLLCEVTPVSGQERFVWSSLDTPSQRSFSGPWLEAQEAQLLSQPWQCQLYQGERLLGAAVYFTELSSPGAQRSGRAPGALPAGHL
Kind of assay: blocking ELISA, LAG-3 on Daudi cells.

The target of assay [2] is T1, bio-LAG3-mFc. The assay is described as follows: blocking ELISA, LAG-3 on Daudi cells. This is another data set of the same source. (An ELISA detects its analyte on a solid surface through an enzyme-linked reagent.)
In assay [3] the target is T2, human LAG-3-his (human, UniProt P18627 23-422).
T2 construct: range 23-422; also called hLAG-3-his; hLAG-3
T2 sequence: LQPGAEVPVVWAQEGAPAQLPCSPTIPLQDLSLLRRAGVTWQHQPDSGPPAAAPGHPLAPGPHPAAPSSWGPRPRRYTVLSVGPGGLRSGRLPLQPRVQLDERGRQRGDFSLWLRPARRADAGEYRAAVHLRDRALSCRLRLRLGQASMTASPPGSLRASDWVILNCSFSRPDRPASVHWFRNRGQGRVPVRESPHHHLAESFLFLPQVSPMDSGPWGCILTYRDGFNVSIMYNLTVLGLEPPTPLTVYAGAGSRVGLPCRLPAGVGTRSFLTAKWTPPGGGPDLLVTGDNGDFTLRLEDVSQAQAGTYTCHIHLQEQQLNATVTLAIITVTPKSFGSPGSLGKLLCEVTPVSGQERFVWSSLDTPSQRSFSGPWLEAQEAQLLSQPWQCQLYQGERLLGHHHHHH
The assay is described as follows: ELISA on coated human LAG-3, OD450 (Example 3, Example 13) [panel a].

Assay [4] deals with T3, human LAG-3 on CHO-K1 cells (hLAG-3+ cells) (human, UniProt P18627 23-525).
T3 construct: whole, on cells; Cells fixed in the cell ELISA; also called CHO-K1hLAG-3+ cell strain
T3 sequence (looked up): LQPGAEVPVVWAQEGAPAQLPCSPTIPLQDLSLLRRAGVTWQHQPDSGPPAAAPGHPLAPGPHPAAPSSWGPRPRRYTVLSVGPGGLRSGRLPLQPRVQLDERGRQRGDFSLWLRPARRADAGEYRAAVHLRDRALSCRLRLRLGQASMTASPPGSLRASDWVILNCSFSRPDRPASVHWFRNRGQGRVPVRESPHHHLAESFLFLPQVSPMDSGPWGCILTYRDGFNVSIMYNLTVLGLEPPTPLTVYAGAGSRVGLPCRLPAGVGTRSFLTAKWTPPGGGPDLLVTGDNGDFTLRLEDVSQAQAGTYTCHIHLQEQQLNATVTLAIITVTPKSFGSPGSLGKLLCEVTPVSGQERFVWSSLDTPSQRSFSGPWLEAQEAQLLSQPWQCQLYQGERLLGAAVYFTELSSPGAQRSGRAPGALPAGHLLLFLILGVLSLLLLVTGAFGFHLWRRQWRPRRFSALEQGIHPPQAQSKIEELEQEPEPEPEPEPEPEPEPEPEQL
Kind of assay: cell ELISA on fixed CHO-K1 hLAG-3+ cells. The method, then:
After washing with PBS (BasalMedia Biology, Cat. No.: B320) once, 5% milk was added with 230 μl per well, and the microplate was incubated for 2 hours at 37° C. for blocking, and then was washed three times with PBST. After washing, each well was added with 50 μl sample (the samples were 5-fold serially diluted with an initial concentration of 10 μg/ml). The microplate was then incubated for 1 hour at 37° C. and washed 5 times with PBST. […] After washing the microplate 5 times with PBST, 50 μl/well TMB (Sunnodic, Cat. No.: TTMB-1000-01) was added to the microplate for color development. Finally, 50 μl/well of 1M H₂SO₄ was added to stop the reaction. The microplate was then read by a microplate reader (MultiskanGO Thermo, model 511919200), and the data were analyzed using Graphpad prism 5.

In the next assay the target is T4, cyno-LAG3-hFc (cynomolgus monkey).
T4 construct: Bought product; also called cynomolgus monkey LAG-3
The assay is described as follows: ELISA.

Assay [5] deals with T2, human LAG-3-his. The assay is described as follows: Biacore T200, antibody captured on Protein A, LAG-3-his in solution. The method, then:
First, Protein A (Thermo Pierce, Cat. No.: 21181) was coupled to the biosensor chip CMS (GE, Cat. No.: BR-4005-30) using pH 7.4 running buffer HBS-EP+ (10 mM HEPES, 150 mM NaCl, 3 mM EDTA, and 0.05% P20). The chip was activated with a freshly prepared 50 mM NHS (N-hydroxysuccinimide) and 200 mM EDC (1-ethyl-3-(3-dimethylaminopropyl) carbodiimide hydrochloride) followed by injection of 10 μg/ml Protein A prepared with 10 mM NaAc (pH4.0). […] The flow rate was […], binding time was 180 s, and dissociation time was 300 s, After the experiment, the chip was washed for 30 s with 10 mM Glycine-HCl (pH 1.5) at a flow rate of 30 μl/min. The experimental data were fitted with the 1:1 Langmuir model using the software of Biacore T200 evaluation version 3.0 (GE), and the value of affinity KD was obtained.

Residue numbers refer to the chain shown, from its start. Like-named read-outs stand apart in the source and are kept apart here.

For orientation: IC50 means the concentration that gives 50% inhibition. Low values mean greater potency in that assay, high ones weaker potency in that assay. By EC50 (read off the curve) is commonly meant the concentration that produces a half-maximal response. A high value points to a less potent agent. By EC50 is commonly meant the concentration giving half of the maximal effect. Low values mean a more potent agent, high ones a less potent agent. By Kd is commonly meant the equilibrium constant for the complex coming apart. A low value points to tighter binding.

B1: humanized anti-human LAG-3 antibody Ab2317 (antibody, human IgG4 S228P, kappa, V domains shown)
VH: QVQLVQSGAEVKKPGASVKVSCKASGYTFTDYEMHWVKQAPGQGLEWIGGIDPETEGIAYNQKFRGRATLTADKSTSTAYMELRSLRSDDTAVYYCTNSNYYGGREAWFAYWGQGTLVTVSS
VL: DIQMTQSPSSLSASVGDRVTITCRASQDIGSSLNWYQQKPGKAPKRLIYATSSLDSGVPSRFSGSRSGSDFTLTISSLQPEDFATYYCLQYVTSPLTFGGGTKVEIKR
notes: LG2317 / LG2343, human kappa / hIgG4
For B1, the IC50 with bio-LAG3-mFc [1] is 2.7 nM; with bio-LAG3-mFc [2], 1.64 nM. Further, the “EC50 (read off the curve)” value with human LAG-3-his [3] was ~0.3 nM. This molecule also had an EC50 in assay [4] of 0.2 nM. Moreover, the “fold weaker than binding to human LAG-3” value with cyno-LAG3-hFc is > 200 times. The same molecule yielded a Kd in the assay with human LAG-3-his [5] of 0.168 nM.

B2: humanized antibody Ab2325 (antibody, human IgG4 S228P, kappa, V domains shown)
VH: B1 VH with I48M, L70M, A72T, K74T, T97A
VL: B1 VL
notes: LG2317 / LG2348, human kappa / hIgG4
Turning to B2, the values for the IC50 with bio-LAG3-mFc [1] and with bio-LAG3-mFc [2] were 3.6 nM and 1.76 nM, respectively. The molecule further displayed a half-maximal effective concentration (EC50) in assay [4] of 0.19 nM. The “fold weaker than binding to human LAG-3” value in the assay with cyno-LAG3-hFc was > 200 times. Moreover, in the assay with human LAG-3-his [5], the Kd came out at 0.19 nM.
